Columns and labels:
[1] = test system: MS2 coat protein; assay: apparent KD of MS2 coat protein, switch OFF state (with FMN for OFF switches, without FMN for ON switches); designed switch direction (-1 OFF switch, 1 ON switch): -1; higher = weaker reporter binding; settings: FMN input: 0 or 200 uM; Eterna round: R93 (includes R88 designs)
How it was run: (§1)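 Apparent KD stands for the median, per design, of fits to normalised cluster binding curves. The curves came from titrating on-chip-transcribed RNA switches on Illumina sequencing clusters with SNAP-549-labelled MS2 coat protein, twofold from 0.7 or 1.5 nM to 3 µM. Buffer was 100 mM Tris-HCl pH 7.5, 80 mM KCl, 4 mM MgCl2, without or with constant ligand.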

[2] = test system: MS2 coat protein; assay: apparent KD of MS2 coat protein, switch ON state; designed switch direction (-1 OFF switch, 1 ON switch): -1; higher = weaker reporter binding; settings: FMN input: 0 or 200 uM; Eterna round: R93 (includes R88 designs)
How it was run: as §1

Row | Sequence | apparent KD of MS2 coat protein [1] [nM] | apparent KD of MS2 coat protein [2] [nM]
1 | AACAGUACAGGAUAUACAUGAGGAUCACCCAUGUGAAAAUUAAGUGGCGUACCACAAGGUAGAAGGGUACUGGA [Moding Maslow Revisited (73) 27] | 129 | 32.7
2 | AACAGUACAGGAUAUACAUGAGGAUCACCCAUGUGAAAAUUAAGUGGCGUACCACAAUGUAGAAGGGUACUGAA [Mat - Exclusion 3 - Eli mod - D46] | 232 | 103
3 | AACAGUACAGGAUAUACAUGAGGAUCACCCAUGUGAAAAUUAAGUGGGAAACCACAAUGUAGAAGGGUACUGGA [Mat - Exclusion 3 - Eli mod - D50] | 109 | 121
4 | AACAGUACAGGAUAUACAUGAGGAUCACCCAUGUGACAAUUAAGUGGCGUACCACAGUGUAGAAGGGUACUGGA [Ruby 84] | 113 | 93.1
5 | AACAGUACAGGAUAUACAUGAGGAUCACCCAUGUGAGAAUUAAGUAGAUUGCCACAAAGUAGAAGGGUACUGGA [Ruby 98] | 80.9 | 59.3
6 | AACAGUACAGGAUAUACAUGAGGAUCACCCAUGUGAGACUUAAGUGGCGUACCACAAAGUAGAAGGGUACUGGA [JL Maslow Revisted mod 8] | 386 | 84.1
7 | AACAGUACAGGAUAUACAUGAGGAUCACCCAUGUGGGUGUUAAGUGGCGUACCACAAAGUAGAAGGGUACUGGA [JL In the Red CG] | 106 | 327
8 | AACAUGUCAGGAUAUGCGAAGGCGUCUGACAGACGAGGCUAGCAGAAGGGACAUGAGGAUCACCCAUGUAAAAA [Mod of Power Strip by EINando888 - changed 3 and 30 to C] | 48.8 | 111
9 | AACAUGUGAGGAUAUGUACGAAAAAAUAAAAAAAUAAAAGUACAGAAGGCACAUGAGGAUCACCCAUGUGAAAA [EX4 395: Minimal 8] | 271 | 176
10 | AACAUGUGAGGAUAUUUAAGAAAAGAAAAGAAAGAAAAGAAAAAGAAGGCACAUGAGGAUCACCCAUGUAAGAA [EteRNA is fun!] | 26 | 24.1
11 | AACCAACAUGAGGAUCACCCAUGUCAGGAUAUGCAAACAACAAACAACAAACAACAAAGCAGAAGGGACAACAA [63%, Olong, 1] | 21.1 | 15.2
12 | AACCUGCUAGGAUAUACAGCAGGGAUUCGAAAACCCACGAAACAUGAGGAUCACCCAUGUAGAAGGAGUAGGGA [Teainis] | 16.1 | 20.3
13 | AACGAGUCAGGAUAUACAAAAAAUAAAUAAAUAAAAUAAAAGUAGAAGGGACAUGAGGAUCACCCAUGUAAAUA [JR_Exc004_Sub020] | 44 | 59.3
14 | AACUAGCUAGGAUAUACAUGAGGAUCACCCAUGUAAAAAAAAAAAAAAAGAUAUAUAUGUAGAAGGAGCUAGUA [Mod of Brourd] | 41.3 | 30.5
15 | AACUAGCUAGGAUAUACAUGAGGAUCACCCAUGUAAAAAAAAAAAAAAAGAUCAAAAUGUAGAAGGAGCUAGUA [Design 2 - Brourd - Exclusion 3] | 58.5 | 59.6
16 | AACUAGUCAGGAUAUACGAACAUGUCAAAAAACAUAAAGGGACAUGAGGAUCACCCAUGUAGAAGGGACUAACA [74%, Web mod - With 5 less G's] | 500 | 299
17 | AACUAGUCAGGAUAUACGAACAUGUCAAAAGACGUGAAGGGACAUGAGGAUCACCCAUGUAGAAGGGACUAGCA [74%, Web mod - With 1 less G's] | 147 | 47.1
18 | AACUGACAUGAGGAUCACCCAUGUCAGGAUAUGACUUGACGAAAAAAAACAUGUCAUGUCAGAAGGGACAUGGA [Design 89: Sub-opt Z] | 27.6 | 26.4
19 | AACUGACAUGAGGAUCACCCAUGUCAGGAUAUGAUAUGUAAAAAAAAAAAAAUACUUAUCAGAAGGGACAUGAA [Design 44: Sub-opt CB] | 14.1 | 15.1
20 | AACUGACAUGAGGAUCACCCAUGUCAGGAUAUGCUUCAUAAAAAAAAAAAAAAAUGAUGCAGAAGGGACAUGGA [Design 29 :P Sub-opt 5] | 24.5 | 20
21 | AACUGACAUGAGGAUCACCCAUGUCAGGAUAUGCUUCAUAAAAAGAAACAAAAAUGAUGCAGAAGGGAUAUGGA [Design 35 :P Sub-opt 11] | 13.9 | 13
22 | AACUGACAUGAGGAUCACCCAUGUCAGGAUAUGCUUCAUAAAACAAAAACAAAAUGAUGCAGAAGGGACAUGAA [Design 26 :P Sub-opt 2] | 14.6 | 16.3

Row | Sequence | apparent KD of MS2 coat protein [1] [nM] | apparent KD of MS2 coat protein [2] [nM]
23 | AACUGUACAGGAUAUACAUGAGGAUCACCCAUGUGAGAAUUAAGUGGGAAACCACAAAGUAGAAGGGUACAGGA [Mat - Exclusion 3 - JL mod - D19] | 162 | 29.1
24 | AAGAAACAUGAGGAUCACCCAUGUCAGGAUAUACAAAAGAAAAGAAAAGAAAGAAGAAGUAGAAGGGACAAAGG [Neitiqerty Siptah] | 69.3 | 38.3
25 | AAGAAACAUGAGGAUCACCCAUGUCAGGAUAUCAAAAAGAAAAGAAAAGAAAGAAGAAUGAGAAGGGACAAAGG [Meryibre Khety I] | 61.7 | 50.7
26 | AAGAAACAUGAGGAUCACCCAUGUCAGGAUAUGCAAAACUGACGAAAGUCAGAAGAAAGCAGAAGGGACUAGAA [5-pair stack] | 52 | 29.1
27 | AAGAAACAUGAGGAUCACCCAUGUCAGGAUAUUCAAAAGAAAAGAAAAGAAAGAAGAAGAAGAAGGGACAAAGG [Neferkare II] | 66.1 | 57.6
28 | AAGAAACAUGAGGAUCACCCAUGUGAGGAUAUACAAAAGAAAAGAAAAGAAAGAAGAAGUAGAAGGUACAAAGG [Merenre Nemtyemsaf II] | 26.6 | 23.7
29 | AAGAAACAUGAGGAUCACCCAUGUGAGGAUAUGGAAAAGAAAAGAAAAGAAAGAAGAACCAGAAGGCACAAAGG [Neferkare (VI) Pepiseneb] | 50.8 | 71.8
30 | AAGAAAGGAGGAUAUACAUGAGGAUCACCCAUGUAAAAGAAAGAAAAGGGAAAGAAAAGUAGAAGGCCUAAGAA [Usermaatre-meryamun Ramesses III] | 28.7 | 39.2
31 | AAGAAAGGAGGAUAUACAUGAGGAUCACCCAUGUAAAAGAAAGAAAGGGAAAAGAAAAGUAGAAGGCCUAAGAA [Shoshenq IV] | 41.2 | 35.3
32 | AAGAACACAGGAUAUACAUGAGGAUCACCCAUGUAAAAGAAAGAAAAGGGAAAGAAAAGUAGAAGGGUGAAGAA [Nebkheperure Tutankhaten] | 51.3 | 44.7
33 | AAGAACCAAGGAUAUACAUGAGGAUCACCCAUGUAAAAGAAAGAAAAGGGAAAGAAAAGUAGAAGGUGGAAGAA [Userkheperure Seti II] | 27.3 | 25.7
34 | AAGAACCGAGGAUAUACAUGAGGAUCACCCAUGUAAAAGAAAGAAGGGAAAGAGAAAAGUAGAAGGCGGAAGAA [Usermaatre Shoshenq VI] | 34.3 | 36.1
35 | AAGAACCGAGGAUAUACUAAAGAAAUGAAAAGAAAUAAAGAACAUGAGGAUCACCCAUGUAGAAGGCGGAAGAA [Nebefawre] | 23.4 | 27.4
36 | AAGAACCUAGGAUAUACUAAAGAAAUGAAAAGAAAUAAAGAACAUGAGGAUCACCCAUGUAGAAGGAGGAAGAA [Sewadjkare III] | 26.1 | 43.4
37 | AAGAACGAAGGAUAUACAUGAGGAUCACCCAUGUAAAAGAAAGAAGGGAAAGAGAAAAGUAGAAGGUCGAAGAA [Usermaatre Piye] | 24.4 | 22.2
38 | AAGAACGCAGGAUAUACAUGAGGAUCACCCAUGUAAAAGAAAGAGGGAAAAGAGAAAAGUAGAAGGGCGAAGAA [Setepenre-meryamun Ptolemy I Soter] | 57.8 | 37
39 | AAGAACGGAGGAUAUACUAAAGAAAUGAAAAGAAAUAAAGAACAUGAGGAUCACCCAUGUAGAAGGCCGAAGAA [Sehebre] | 23.7 | 17
40 | AAGAACGUAGGAUAUACAAAAUAAAAGAAAAGAAAGAAAGAACAUGAGGAUCACCCAUGUAGAAGGACGAAGAA [Sekhemrekhutawy Khabaw] | 21.8 | 21.6
41 | AAGAACUGAGGAUAUACAAAAUAAAAGAAAAGAAAGAAAGAACAUGAGGAUCACCCAUGUAGAAGGUAGAAGAA [Maakherure Amenemhat IV] | 33.4 | 31.3
42 | AAGAACUGAGGAUAUACAUGAGGAUCACCCAUGUAAAAGAAAGAAGGGAAAGAGAAAAGUAGAAGGCAGAAGAA [Inamunnifnebu] | 27.8 | 20.6
43 | AAGAAGCGAGGAUAUACAAAAUAAAAGAAAAGAAAGAAAGAACAUGAGGAUCACCCAUGUAGAAGGCGCAAGAA [Semenkare Nebnuni] | 28.5 | 34.9
44 | AAGAAGCUAGGAUAUACAUGAAAGAAAGAAAAGAAAAGAAAACAUGAGGAUCACCCAUGUAGAAGGAGCUAGAA [EteRNA is fun!] | 32.5 | 33.1

— the supplement of paper PMC9170038
